Values belong to the binder of their own block, whether it stands above or below them.
Key:
[1] = target: proenzyme C3bB (Homo sapiens, UniProt P01024;P00751); experiment: SPR
[2] = target: C3b (human, UniProt P01024); experiment: SPR

Chain of proenzyme C3bB (P00751 whole entry, looked up, chain 1 of 2): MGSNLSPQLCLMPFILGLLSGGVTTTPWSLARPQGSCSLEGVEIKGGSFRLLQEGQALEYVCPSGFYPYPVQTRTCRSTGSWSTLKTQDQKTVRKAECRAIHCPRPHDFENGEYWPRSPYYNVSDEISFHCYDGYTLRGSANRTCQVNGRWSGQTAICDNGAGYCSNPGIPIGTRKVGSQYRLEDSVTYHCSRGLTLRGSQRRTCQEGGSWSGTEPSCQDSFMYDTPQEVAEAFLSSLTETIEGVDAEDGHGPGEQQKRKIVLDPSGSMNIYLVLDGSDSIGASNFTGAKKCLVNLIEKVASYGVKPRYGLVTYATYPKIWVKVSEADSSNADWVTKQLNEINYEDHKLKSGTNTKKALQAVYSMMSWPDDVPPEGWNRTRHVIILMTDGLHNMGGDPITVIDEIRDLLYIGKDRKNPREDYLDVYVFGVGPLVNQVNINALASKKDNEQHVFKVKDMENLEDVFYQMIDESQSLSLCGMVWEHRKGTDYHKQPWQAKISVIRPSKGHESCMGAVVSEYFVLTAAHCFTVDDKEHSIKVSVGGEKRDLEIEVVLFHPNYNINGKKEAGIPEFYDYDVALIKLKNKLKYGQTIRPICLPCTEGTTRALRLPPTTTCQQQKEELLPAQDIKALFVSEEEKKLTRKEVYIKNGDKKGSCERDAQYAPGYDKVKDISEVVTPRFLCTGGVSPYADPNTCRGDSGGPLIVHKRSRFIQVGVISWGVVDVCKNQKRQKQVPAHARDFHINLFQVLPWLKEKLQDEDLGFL
Chain of proenzyme C3bB (P01024 whole entry, looked up, chain 2 of 2): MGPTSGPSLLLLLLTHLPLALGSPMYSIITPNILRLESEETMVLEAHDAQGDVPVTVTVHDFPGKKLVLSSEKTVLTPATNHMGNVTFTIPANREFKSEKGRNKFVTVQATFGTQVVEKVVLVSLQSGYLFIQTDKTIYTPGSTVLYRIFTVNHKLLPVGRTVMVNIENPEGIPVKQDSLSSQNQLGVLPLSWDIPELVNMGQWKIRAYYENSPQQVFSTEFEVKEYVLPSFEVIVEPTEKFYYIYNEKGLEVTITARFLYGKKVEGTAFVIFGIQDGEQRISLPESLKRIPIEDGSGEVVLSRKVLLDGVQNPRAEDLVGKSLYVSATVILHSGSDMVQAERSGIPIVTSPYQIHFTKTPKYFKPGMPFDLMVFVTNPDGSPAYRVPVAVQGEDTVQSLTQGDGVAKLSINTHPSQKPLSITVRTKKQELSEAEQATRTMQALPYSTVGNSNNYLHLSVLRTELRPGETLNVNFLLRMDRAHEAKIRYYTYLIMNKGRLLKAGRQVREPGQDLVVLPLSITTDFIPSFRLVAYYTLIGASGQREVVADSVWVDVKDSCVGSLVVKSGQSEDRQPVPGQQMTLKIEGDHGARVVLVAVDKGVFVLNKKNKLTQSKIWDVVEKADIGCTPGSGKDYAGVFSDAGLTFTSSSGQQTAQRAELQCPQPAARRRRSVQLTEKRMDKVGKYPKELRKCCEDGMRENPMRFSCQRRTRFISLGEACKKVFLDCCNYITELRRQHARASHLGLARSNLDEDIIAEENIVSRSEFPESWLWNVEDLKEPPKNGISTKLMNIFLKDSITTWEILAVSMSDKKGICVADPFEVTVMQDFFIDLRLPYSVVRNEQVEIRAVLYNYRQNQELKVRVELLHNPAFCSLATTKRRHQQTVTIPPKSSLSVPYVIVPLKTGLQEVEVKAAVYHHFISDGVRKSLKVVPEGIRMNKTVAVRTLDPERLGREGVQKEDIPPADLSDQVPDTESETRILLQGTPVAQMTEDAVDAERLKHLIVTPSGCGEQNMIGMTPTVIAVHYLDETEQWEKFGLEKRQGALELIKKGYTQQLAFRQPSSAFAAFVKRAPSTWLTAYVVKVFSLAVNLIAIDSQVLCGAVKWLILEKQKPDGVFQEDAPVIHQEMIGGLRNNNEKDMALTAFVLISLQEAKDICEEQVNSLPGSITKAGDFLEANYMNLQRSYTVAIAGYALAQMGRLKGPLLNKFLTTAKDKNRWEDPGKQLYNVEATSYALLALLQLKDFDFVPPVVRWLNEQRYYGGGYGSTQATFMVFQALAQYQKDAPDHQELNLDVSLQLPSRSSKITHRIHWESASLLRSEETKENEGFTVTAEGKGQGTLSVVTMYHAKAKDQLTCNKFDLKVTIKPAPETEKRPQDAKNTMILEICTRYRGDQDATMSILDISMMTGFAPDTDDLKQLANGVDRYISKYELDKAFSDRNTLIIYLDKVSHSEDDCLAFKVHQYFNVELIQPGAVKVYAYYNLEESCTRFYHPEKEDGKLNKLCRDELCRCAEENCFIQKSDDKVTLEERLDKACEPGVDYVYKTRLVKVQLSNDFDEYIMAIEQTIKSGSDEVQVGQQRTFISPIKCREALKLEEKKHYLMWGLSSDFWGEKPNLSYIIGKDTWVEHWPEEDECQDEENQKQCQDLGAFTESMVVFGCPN

binding result [1]: no binding (tested: 20 μg/ml)
B1: mAb 3E7 (antibody, V domains shown)
VH: EVQLQESGPSLVKPSQTLSLTCSVTGDSITSDYWNWIRKFPGNKLESMGYITYSGTTYYNPSLKSRISITRDTSKNQYYLQLNSVTSEDTATYYCARGVDYEPSYYFDYWGQGTTLTVSS
VL: DIQMTQTTSSLSASLGDRVTISCSASQGISNYLNWYQQKPDGTVKLLIYYTSSLHSGVPSRFSGSGSGTDYSLTISNLEPEDIATYYCQQYSNLPWTFGGGTKLEIK

binding result [1]: no binding (tested: 20 μg/ml)
Kd [2]: 28 nM
B2: mAb H17 (antibody, V domains shown)
VH: EVQLQESGPSLVKPSQTLSLTCTVSGDSITSDYWNWIRQAPGKGLESMGYITYSGTTYYNPSLKSRVTISRDTSKNQYYMELSSLRSEDTATYYCARGVDYEPSYYFDYWGQGTLVTVSS
VL: DIQMTQSPSSLSASVGDRVTITCSASQGISNYLNWYQQKPGKAPKLLIYYTSSLHSGVPSRFSGSGSGTDYSLTISSLQPEDIATYYCQQYSNLPWTFGQGTKVEIK
